Assay results reported in article PMC9482650, “Quantitative fragmentomics allow affinity mapping of interactomes” (Nature Communications, 2022).

Experiments:
Assay in all cases: holdup assay
Design in all cases: key: below the threshold = too weak to quantify, mostly under pKd 3.1 to 4
Details in all cases: plain residues with an end cap or a label only (N-terminal biotin on a linker: ado-ado)
AHNAK1, Q09666 = target: AHNAK1, Q09666
APBA1_2, Q02410 = target: T1, APBA1_2, Q02410
T1 sequence (Q02410 742-832, limits assumed, looked up): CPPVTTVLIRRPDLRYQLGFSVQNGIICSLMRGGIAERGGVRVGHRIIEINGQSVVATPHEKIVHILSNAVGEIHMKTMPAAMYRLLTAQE

CARD11, Q9BXL7 = target: T2, CARD11, Q9BXL7
T2 sequence (Q9BXL7 662-765, limits assumed, looked up): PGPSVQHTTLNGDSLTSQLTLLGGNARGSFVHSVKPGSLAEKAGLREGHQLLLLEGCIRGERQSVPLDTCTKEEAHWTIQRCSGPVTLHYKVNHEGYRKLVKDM

DFNB31_3, Q9P202 = target: T3, DFNB31_3, Q9P202
T3 sequence (Q9P202 811-907, limits assumed, looked up): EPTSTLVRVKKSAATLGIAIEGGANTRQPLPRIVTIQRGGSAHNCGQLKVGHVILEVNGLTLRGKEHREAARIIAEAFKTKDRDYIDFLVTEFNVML

DLG1_3, Q12959 = target: DLG1_3, Q12959
Sequence of DLG1_3, Q12959 (Q12959 457-571): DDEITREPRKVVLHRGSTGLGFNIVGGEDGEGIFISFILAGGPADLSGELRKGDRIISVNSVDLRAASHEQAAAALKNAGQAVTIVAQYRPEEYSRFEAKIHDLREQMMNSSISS

DLG4_3, P78352 = target: DLG4_3, P78352
Sequence of DLG4_3, P78352 (P78352 306-403): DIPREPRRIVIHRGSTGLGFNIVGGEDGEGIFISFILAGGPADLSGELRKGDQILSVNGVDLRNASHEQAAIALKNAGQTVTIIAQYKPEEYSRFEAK

FRMPD3, Q5JV73 = target: FRMPD3, Q5JV73
Sequence of FRMPD3, Q5JV73 (Q5JV73 12-100): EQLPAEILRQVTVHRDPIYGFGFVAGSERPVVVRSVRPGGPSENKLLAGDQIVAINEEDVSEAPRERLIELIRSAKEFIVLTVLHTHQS

GORASP2, Q9H8Y8 = target: GORASP2, Q9H8Y8
GRID2IP_1, A4D2P6 = target: GRID2IP_1, A4D2P6
Sequence of GRID2IP_1, A4D2P6 (A4D2P6 1-87): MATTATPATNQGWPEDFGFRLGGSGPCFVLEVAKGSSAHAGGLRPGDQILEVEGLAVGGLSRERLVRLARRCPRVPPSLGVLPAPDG

GRIP1_2, Q9Y3R0 = target: T4, GRIP1_2, Q9Y3R0
T4 sequence (Q9Y3R0 145-248, limits assumed, looked up): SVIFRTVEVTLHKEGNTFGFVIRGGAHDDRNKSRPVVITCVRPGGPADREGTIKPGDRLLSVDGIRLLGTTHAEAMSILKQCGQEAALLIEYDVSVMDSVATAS

GRIP1_3, Q9Y3R0 = target: T5, GRIP1_3, Q9Y3R0
T5 sequence (Q9Y3R0 247-346, limits assumed, looked up): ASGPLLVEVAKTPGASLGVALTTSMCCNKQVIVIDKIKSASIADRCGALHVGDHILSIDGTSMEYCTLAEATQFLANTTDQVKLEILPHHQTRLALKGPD

GRIP1_5, Q9Y3R0 = target: T6, GRIP1_5, Q9Y3R0
T6 sequence (Q9Y3R0 568-668, limits assumed, looked up): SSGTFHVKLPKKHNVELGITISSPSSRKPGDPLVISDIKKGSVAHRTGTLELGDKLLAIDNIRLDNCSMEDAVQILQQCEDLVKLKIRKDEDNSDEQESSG

GRIP2_3, Q9C0E4 = target: GRIP2_3, Q9C0E4
Sequence of GRIP2_3, Q9C0E4 (Q9C0E4 238-339): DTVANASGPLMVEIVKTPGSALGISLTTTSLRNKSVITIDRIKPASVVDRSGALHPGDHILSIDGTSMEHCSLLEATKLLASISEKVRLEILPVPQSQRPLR

GRIP2_7, Q9C0E4 = target: GRIP2_7, Q9C0E4
Sequence of GRIP2_7, Q9C0E4 (Q9C0E4 934-1023): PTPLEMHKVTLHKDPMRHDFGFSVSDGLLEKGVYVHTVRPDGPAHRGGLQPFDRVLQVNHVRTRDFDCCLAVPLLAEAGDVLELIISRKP

HTRA2, O43464 = target: HTRA2, O43464
Sequence of HTRA2, O43464 (O43464 355-458): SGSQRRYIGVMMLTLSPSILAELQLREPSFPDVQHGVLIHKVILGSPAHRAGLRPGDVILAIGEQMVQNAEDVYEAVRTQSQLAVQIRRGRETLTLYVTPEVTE

LAP2, Q96RT1 = target: LAP2, Q96RT1
Sequence of LAP2, Q96RT1 (Q96RT1 other isoform, or with tags, fused parts or gaps): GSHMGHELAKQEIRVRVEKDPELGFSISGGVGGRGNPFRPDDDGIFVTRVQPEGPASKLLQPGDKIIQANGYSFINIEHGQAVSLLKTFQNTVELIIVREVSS

LIN7C, Q9NUP9 = target: T7, LIN7C, Q9NUP9
T7 sequence (Q9NUP9 88-185, limits assumed, looked up): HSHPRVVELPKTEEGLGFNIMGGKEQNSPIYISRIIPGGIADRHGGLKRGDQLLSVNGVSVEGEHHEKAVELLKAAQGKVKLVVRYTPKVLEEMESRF

MAGI2_2, Q86UL8 = target: MAGI2_2, Q86UL8
Sequence of MAGI2_2, Q86UL8 (Q86UL8 410-522): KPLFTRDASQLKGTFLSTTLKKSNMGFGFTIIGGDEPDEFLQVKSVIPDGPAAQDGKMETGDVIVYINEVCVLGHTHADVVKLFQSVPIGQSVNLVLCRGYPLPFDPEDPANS

MAGI2_4, Q86UL8 = target: MAGI2_4, Q86UL8
Sequence of MAGI2_4, Q86UL8 (Q86UL8 772-865): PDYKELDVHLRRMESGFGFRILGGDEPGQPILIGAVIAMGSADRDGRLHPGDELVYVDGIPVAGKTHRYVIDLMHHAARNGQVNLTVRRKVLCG

MPP7, Q5T2T1 = target: T8, MPP7, Q5T2T1
T8 sequence (Q5T2T1 134-230, limits assumed, looked up): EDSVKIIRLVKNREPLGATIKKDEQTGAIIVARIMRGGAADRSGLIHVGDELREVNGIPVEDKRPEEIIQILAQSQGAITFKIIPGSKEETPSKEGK

PDZRN4_1, Q6ZMN7 = target: PDZRN4_1, Q6ZMN7
Sequence of PDZRN4_1, Q6ZMN7 (Q6ZMN7 213-318): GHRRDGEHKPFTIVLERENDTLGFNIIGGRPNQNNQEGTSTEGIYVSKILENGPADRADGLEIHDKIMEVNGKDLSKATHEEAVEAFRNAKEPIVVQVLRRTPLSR

SCRIB_1, Q14160 = target: SCRIB_1, Q14160
Sequence of SCRIB_1, Q14160 (Q14160 718-814): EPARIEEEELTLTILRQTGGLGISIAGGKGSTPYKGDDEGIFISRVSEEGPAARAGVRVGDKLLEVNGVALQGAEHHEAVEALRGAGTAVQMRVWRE

SCRIB_2, Q14160 = target: SCRIB_2, Q14160
Sequence of SCRIB_2, Q14160 (Q14160 857-960): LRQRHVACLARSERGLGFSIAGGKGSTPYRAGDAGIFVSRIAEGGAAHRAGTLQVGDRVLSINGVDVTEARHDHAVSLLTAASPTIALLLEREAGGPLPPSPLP

SNX27, Q96L92 = target: SNX27, Q96L92
SYNJ2BP, P57105 = target: T9, SYNJ2BP, P57105
T9 sequence (P57105 8-110, limits assumed, looked up): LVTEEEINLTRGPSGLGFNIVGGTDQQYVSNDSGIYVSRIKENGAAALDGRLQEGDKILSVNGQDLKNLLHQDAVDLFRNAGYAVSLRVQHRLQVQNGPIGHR

TJP2_1, Q9UDY2 = target: TJP2_1, Q9UDY2
Sequence of TJP2_1, Q9UDY2 (Q9UDY2 24-128): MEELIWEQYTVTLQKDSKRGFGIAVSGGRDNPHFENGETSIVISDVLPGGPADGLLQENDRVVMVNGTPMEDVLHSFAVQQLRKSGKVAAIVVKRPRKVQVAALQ

TJP3_3, O95049 = target: T10, TJP3_3, O95049
T10 sequence (O95049 375-456, limits assumed, looked up): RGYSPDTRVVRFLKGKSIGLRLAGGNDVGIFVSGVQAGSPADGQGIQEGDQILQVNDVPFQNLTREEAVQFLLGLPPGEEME

Sequence of AHNAK1, Q09666 (Q09666 4-100): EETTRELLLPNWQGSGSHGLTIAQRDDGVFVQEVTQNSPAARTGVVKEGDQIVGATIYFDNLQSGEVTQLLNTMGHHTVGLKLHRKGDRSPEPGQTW

Binder	pKd (AHNAK1, Q09666)	pKd (APBA1_2, Q02410)	pKd (CARD11, Q9BXL7)	pKd (DFNB31_3, Q9P202)	pKd (DLG1_3, Q12959)	pKd (DLG4_3, P78352)	pKd (FRMPD3, Q5JV73)	pKd (GORASP2, Q9H8Y8)	pKd (GRID2IP_1, A4D2P6)	pKd (GRIP1_2, Q9Y3R0)	pKd (GRIP1_3, Q9Y3R0)	pKd (GRIP1_5, Q9Y3R0)	pKd (GRIP2_3, Q9C0E4)	pKd (GRIP2_7, Q9C0E4)	pKd (HTRA2, O43464)	pKd (LAP2, Q96RT1)	pKd (LIN7C, Q9NUP9)	pKd (MAGI2_2, Q86UL8)	pKd (MAGI2_4, Q86UL8)	pKd (MPP7, Q5T2T1)	further results
MLSKQSESAI [FLVCR1, Q9Y5Y0]	below the threshold	below the threshold	below the threshold	below the threshold	3.77	below the threshold	below the threshold	below the threshold	below the threshold	below the threshold	below the threshold	below the threshold	below the threshold	below the threshold	below the threshold	below the threshold	below the threshold	3.8	3.54	below the threshold	pKd (PDZRN4_1, Q6ZMN7): 3.62; pKd (SCRIB_1, Q14160): 3.91; pKd (SCRIB_2, Q14160): 3.55; pKd (SNX27, Q96L92): 4.4; pKd (SYNJ2BP, P57105): 4.52; pKd (TJP2_1, Q9UDY2): below the threshold; pKd (TJP3_3, O95049): below the threshold
RKPKPSSSCC [RAB9A, P51151]	below the threshold	below the threshold	below the threshold	3.9	below the threshold	below the threshold	below the threshold	below the threshold	below the threshold	below the threshold	below the threshold	below the threshold	below the threshold	below the threshold	below the threshold	below the threshold	3.69	below the threshold	below the threshold	below the threshold	pKd (PDZRN4_1, Q6ZMN7): below the threshold; pKd (SCRIB_1, Q14160): below the threshold; pKd (SCRIB_2, Q14160): below the threshold; pKd (SNX27, Q96L92): below the threshold; pKd (SYNJ2BP, P57105): below the threshold; pKd (TJP2_1, Q9UDY2): below the threshold; pKd (TJP3_3, O95049): below the threshold
YRLAQESGLV [ABCC6, O95255]	below the threshold	below the threshold	below the threshold	3.94	below the threshold	below the threshold	below the threshold	below the threshold	below the threshold	below the threshold	below the threshold	below the threshold	below the threshold	below the threshold	below the threshold	below the threshold	4.01	below the threshold	3.89	below the threshold	pKd (PDZRN4_1, Q6ZMN7): below the threshold; pKd (SCRIB_1, Q14160): below the threshold; pKd (SCRIB_2, Q14160): below the threshold; pKd (SNX27, Q96L92): below the threshold; pKd (SYNJ2BP, P57105): below the threshold; pKd (TJP2_1, Q9UDY2): below the threshold; pKd (TJP3_3, O95049): below the threshold
TASPAKETSF [SLC2A7, Q6PXP3]	below the threshold	below the threshold	below the threshold	3.88	below the threshold	below the threshold	below the threshold	below the threshold	below the threshold	below the threshold	below the threshold	below the threshold	below the threshold	below the threshold	below the threshold	below the threshold	4.36	below the threshold	3.52	below the threshold	pKd (PDZRN4_1, Q6ZMN7): below the threshold; pKd (SCRIB_1, Q14160): 4.56; pKd (SCRIB_2, Q14160): 4.12; pKd (SNX27, Q96L92): 5.48; pKd (SYNJ2BP, P57105): below the threshold; pKd (TJP2_1, Q9UDY2): below the threshold; pKd (TJP3_3, O95049): below the threshold
